Data set [1] concerns the molecule itself. Briefly: SEC + native gel or EMSA; purified CHASE4 domain in solvent.
Data set [2] deals with the molecule itself. Nature of the data set: cryo-EM structure; ImcA with the substrate analog GMPCPP, 10 mg/ml, 3.07 Å, C2 symmetry.

The values that follow come from paper PMC10904736, “A c-di-GMP signaling module controls responses to iron in Pseudomonas aeruginosa” (Nature Communications, 2024).

What is called stoichiometry N is a count of units in the complex or per binding partner.

B1: CHASE4 domain of IsmP (CHASE4^IsmP) (domain or fragment)
chain: not shown
notes: CHASE4 domain of IsmP (PA2072) of Pseudomonas aeruginosa PAO1; interface residues Q51, W55 and P247 lie outside 59-220; also called CHASE4 (IsmP^40-255); source: E. coli BL21, purified (HisTrap HP)
As for B1, the “stoichiometry N” value in data set [1] came out at 2.

B2: PA1851 protein (purified ImcA) (natural protein)
chain: MLARDSLVQAGLPDNPYARQLRNGFRWLRFEKELENEFREFLSWNSLMQRRAAIGVAFLIWALFIVADWMMVDIRLHPSLFEQLLGVRLGMIGLLLVVWPAAFLPSLRKVGDAIAPYCLLLINLAVLACDVLFEWHGVPRFTQLGATLGILAVFFPLGLAFWACVRLALLCLALNLAVFLLFGGEENLRTNLLNTLYNGLVVLICSFALYLQDYAQREQFLGRRLLGMMAEQDSLTGLVNRRYYELLAQRALEQGAREEKGVALILVDVDDFKAYNDHYGHPAGDAALRQLGVVLRQGARRPLDIAARLGGEEFAVLLYDSEEGNTLAIAERLRQAVEALGIEHLGSSAGPCLTISLGVAYSTSGMGLDALYREADRALYEAKDAGRNAVRVAFRQHDRLE
notes: ImcA (PA1851) of Pseudomonas aeruginosa PAO1; 6TM domain L47-E231, GGDEF domain R241-A393; Homodimer in the cryo-EM structure with GMPCPP; source: E. coli BL21 (DE3), purified (membrane fraction, DDM, Strep-Tactin, Superose 6)
Consider B2, for which the binding result in data set [2] is “binds”.
